The text below walks through data of article PMC8752837, “Structural basis of BAK activation in mitochondrial apoptosis initiation” (Nature Communications, 2022).

A short description of assay [1]: Liposome permeabilization by WT and mutant BAK proteins (autoactivation, or direct activation by BID BH3). In kind it is biochemical. The following applies: absence of BID BH3. The protocol:
Human BAK-∆TM-His6 (BAK)[26] spontaneously permeabilizes liposomes above a certain dose (>100 nM, Fig. 1a). In these dye-release assays[43]–[46], BAK is recruited via His-tag to liposomes containing 2.5 µM of the lipid 1,2-dioleoyl-sn-glycero-3-[(N-(5-amino-1-carboxypentyl)iminodiacetic acid)succinyl] (nickel salt), DGS-NTA(Ni).
To probe autoactivation with full-length BAK, we mutated hydrophobic residues at positions (0)−(6) of the BH3 to alanine or arginine, and D83, which forms the conserved salt bridge (s) with R127, to alanine (Fig. 2a). The BH3 residues participate in autoactivation from the ligand side [hydrophobic positions (0)–(5) and D83(s)] and also from the receptor groove side [hydrophobic positions (3)–(5)] (Fig. 2a). Thus, substitutions at positions (3)–(5) should affect receptor and ligand activities and are predicted to impact BAK activation more severely than mutations of positions (0)–(2), which affect only ligand activity. […] In contrast, almost all (2)–(5) and (s) missense mutants were considerably impaired in autoactivation (Fig. 2b and Supplementary Fig. 3a). […] Despite impairment in autoactivation, all missense mutants were directly activated by BID BH3 peptide, although they induced lower level of permeabilization compared to WT BAK (Fig. 2b and Supplementary Fig. 3a).
We performed liposome permeabilization assays as previously described[43]–[46]. […] (nickel salt) [DGS NTA(Ni), 2.5 μM final concentration in each assay] (Avanti Polar Lipids). We prepared 12.5 mM fluorophore; 8-aminonaphthalene-1, 3, 6-trisulfonic acid, disodium salt (ANTS) and 45 mM quencher; p-xylene-bis-pyridiniumbromide (DPX) in LUV buffer (10 mM HEPES pH 6.8, 200 mM KCl and 5 mM MgCl2). We mixed the lipid film in ANTS/DPX solution by vortexing and sonication (~15 min) followed by extrusion through polycarbonate membrane of 2 μm pore size (Avanti Polar lipids) to generate homogenous large unilamellar vesicles (LUVs). We separated LUVs from free ANTS/DPX by S500 size exclusion chromatography and stored them at 4 °C in the dark. We prepared peptide and protein dilutions in 96-well black flat bottom plates (Costar) kept on ice. ANTS release from permeabilized liposomes causes an increase in fluorescence, which we monitored at 37 °C for 90 min using a CLARIOSTAR microplate reader (BMG Labtech) set at excitation and emission wavelengths of 360 and 530 nm, respectively. We normalized the data relative to maximum and minimum fluorescence induced by 3% CHAPS and buffer controls, respectively. We quantified liposome permabilization by integrating area under curve (AUC) of normalized traces based on the Simpson’s equation, and analyzed that data in Excel and GraphPad Prism. AUC measurements reflect the kinetic and extent of liposome permeabilization and provide quantitative means for comparison between different experimental conditions (e.g., BAK mutants with gross or partial variation in activity). Variability in permeabilization of different liposomes is common and our analyses compare among conditions investigated with the same liposomes. Although the absolute permeabilization values may differ, the trends for the same conditions are always very similar between different liposomes.

The test system of assay [2] is BCL2allKO HCT116 cells expressing mC-BAK and BID. As to the kind of experiment: Dox + TRAIL + CHX induced cell death by IncuCyte imaging of SYTOX Green uptake (direct activation). In kind it is cell-based, human. The following applies: TRAIL 200 ng/mL + CHX 0.5 µg/mL added at 6 h. The protocol: We achieved stable, constitutive expression of human BID in mC-BAK expressing BCL2allKO HCT116 by retroviral transduction based on pMX-human-BID-IRES-GFP. Amplification primers are included in Supplementary Table 4. We performed two rounds of FACS sorting gating on GFP-positive cells to enrich for populations of cells that express BID.
For coexpression of mC-BAK + BID, we treated cells with different doses of Dox for 24 h to induce expression of mC-BAK. At 6 h, we treated cells with TRAIL (200 ng/mL) + cycloheximide (CHX, 0.5 µg/mL) to promote BID activation under conditions of protein synthesis inhibition by CHX, and continued to record Incucyte imaging of SYTOX Green uptake up to 48 h. We blocked caspase activity with qVD (40 µM).

Assay [3] has as its system BCL2allKO HCT116 cells reconstituted with mC-BAK. In words: Endpoint FACS analysis of SYTOX Green positive cells. In kind it is cell-based, human. The following applies: average, N = 3. The protocol: We seeded cells in 24-well (100,000 cells/well), 96-well (15,000 cells/well), or 384-well (10,000 cells/well) plates coated with 10 µg/mL fibronectin. After ≥24 h of attachment and recovery, we induced cell death with Dox (up to 1000 ng/mL) and monitored SYTOX Green (25 nM) uptake by Incucyte imaging. This dye marks cells with compromised plasma membrane integrity. mC-BAK expressed before 24 h, which coincided with detectable cell death. We monitored Incucyte imaging for up to 48 h, followed by endpoint FACS analysis to measure the extent of cell death based on SYTOX Green positive cells on FACSCalibur systems (BD Biosciences). As expected, cells with low mCherry fluorescence were refractory to cell death.
(In general: Flow cytometry measures light scatter and fluorescence of single cells or particles in a stream.)

Assay [4] concerns bak−/− bax−/− HCT116 cells. As to the kind of experiment: Apoptosis initiated by actinomycin D and TRAIL + CHX in cells constitutively expressing BAK. In kind it is cell-based, human. The following applies: constitutive pMX-BAK-IRES-GFP. The text has this: We enriched for GFP positive cell populations by up to four rounds of sorting. Cells were used in apoptosis assays. […]
and doxycycline (Dox)-inducible mC-BAK. d, Representative i mmunoblot for BID and sypro red staining of BCL2allKO HCT116 cells expressing V74A and D83A mC-BAK and BID from n=2 independent experiments. e, Representative immunoblot of bak-/- bax- […]
from n=2 independent experiments . GFP positive cells were sorted three and four times to achieve similar expression levels. […]
human TRAIL and cycloheximide (CHX).
Data are presented as mean + SD for one representative of n=2 experiments each of n=3 technical replicates. g, Experimental […]
BAK (mC-BAK) monitored for 48 hr by IncuCyte imaging uptake of cell-impermeable dye SYTOX Green. AUC for kinetic traces is included. At 48 hr, we quantified percentage of SYTOX Green +ve cells (%) by fluorescence activated cell sorting (FACS). Data are presented as mean + SD from one of n=3 experiments each of n=3

B1: V74A (1): BAK missense mutant, WT-like; in cells as mCherry fusion (protein)
chain: MASGQGPGPPRQECGEPALPSASEEQVAQDTEEVFRSYVFYRHQQEQEAEGVAAPADPEMVTLPLQPSSTMGQAGRQLAIIGDDINRRYDSEFQTMLQHLQPTAENAYEYFTKIATSLFESGINWGRVVALLGFGYRLALHVYQHGLTGFLGQVTRFVVDFMLHHCIARWIAQRGGWVAALNLGNG
modifications: left off: His6, C-terminal, kept
notes: BAK missense mutant, WT-like; in cells as mCherry fusion
In the case of B1, the “autoactivation in liposome permeabilization assays” value in assay [1] is “behave similar to WT BAK”. In addition, the “cell death with Dox + TRAIL + CHX compared to Dox alone” value in assay [2] is “boosted the levels of cell death”. Besides, the entries for the “flow cytometry SYTOX Green counts/confluence (48 hr)” value in assay [3] (Dox 100 ng/mL) and in assay [3] (Dox 1000 ng/mL) were 40.5 and 46.1667, respectively. Further, in assay [4], the “response to apoptotic inducers actinomycin D and TRAIL + CHX” value is on record as “respond similarly”.
